Here are results for three proteins from PMC3258144 (Nucleic Acids Research, 2011).

The data set “native gel or EMSA” deals with the molecule itself. The data set can be described thus: native gel or EMSA.
Data set [1] deals with the molecule itself. The data set can be described thus: fluorescence polarisation. On the technique in general: Fluorescence polarisation rises when a labelled molecule tumbles more slowly, as on binding a larger partner.

Positions count from the first letter of the chain named. Names and notes keep the numbering of the source.

B1: Dnmt3a-C K840E (domain or fragment, mouse, UniProt O88508 608-908, looked up)
chain: NHDQEFDPPKVYPPVPAEKRKPIRVLSLFDGIATGLLVLKDLGIQVDRYIASEVCEDSITVGMVRHQGKIMYVGDVRSVTQKHIQEWGPFDLVIGGSPCNDLSIVNPARKGLYEGTGRLFFEFYRLLHDARPKEGDDRPFFWLFENVVAMGVSDKRDISRFLESNPVMIDAKEVSAAHRARYFWGNLPGMNRPLASTVNDKLELQECLEHGRIAKFSKVRTITTRSNSIKQGEDQHFPVFMNEKEDILWCTEMERVFGFPVHYTDVSNMSRLARQRLLGRSWSVPVIRHLFAPLKEYFACV
In the case of B1, the binding result in the data set “native gel or EMSA” is reported as “binds”.

B2: Dnmt3a-C E850H (domain or fragment, mouse, UniProt O88508 608-908, looked up)
chain: B1 chain with E233K, E243H
As for B2, the binding result in the data set “native gel or EMSA” is recorded as “binds”.

B3: Dnmt3a-C R827E (domain or fragment, mouse, UniProt O88508 608-908, looked up)
chain: B1 chain with R220E, E233K
As to B3, the binding result (in the data set “native gel or EMSA”; in data set [1]) was “binds” throughout.
